Measured values published in patent publication US20090170141A1 (University of Texas, published 2009).
Blank lines part the entries; values can stand above or below the molecule they belong to.

Legend:
[1] = target: T1, recombinant wild-type pro-ghrelin-His8 (mouse, UniProt Q9EQX0 24-117); test: cell-based or functional assay
T1 sequence: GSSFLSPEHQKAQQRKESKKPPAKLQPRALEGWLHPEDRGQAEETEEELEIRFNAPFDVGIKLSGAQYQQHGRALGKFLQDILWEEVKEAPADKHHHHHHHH

[2] = target: T2, recombinant wild-type pro-ghrelin-His8, Q9EQX0
T2 chain: T1 sequence

acylating activity of GOAT in Sf9 membranes against that in INS-1 cell membranes [1]: 5 fold
Molecule: GOAT expressed in Sf9 insect cells from pFastBac HT-A (His10-tag) (from UniProt P0C7A3 1-435) (enzyme)

3H-radioactivity covalently linked to pro-ghrelin, in vitro assay with [3H]octanoyl CoA and INS-1 cell membranes, against mock-transfected membranes [1]: 5 fold
B1: mouse ghrelin O-acyltransferase (GOAT) (enzyme)
chain: MDWLQLFFLHPLSFYQGAAFPFALLFNYLCILDTFSTRARYLFLLAGGGVLAFAAMGPYSLLIFIPALCAVALVSFLSPQEVHRLTFFFQMGWQTLCHLGLHYTEYYLGEPPPVRFYITLSSLMLLTQRVTSLSLDICEGKVEAPRRGIRSKSSFSEHLWDALPHFSYLLFFPALLGGSLCSFRRFQACVQRSSSLYPSISFRALTWRGLQILGLECLKVALRSAVSAGAGLDDCQRLECIYLMWSTAWLFKLTYYSHWILDDSLLHAAGFGAEAGQGPGEEGYVPDVDIWTLETTHRISLFARQWNRSTALWLRRLVFRKSRRWPLLQTFAFSAWWHGLHPGQVFGFLCWSVMVKADYLIHTFANVCIRSWPLRLLYRALTWAHTQLIIAYIMLAVEGRSLSSLCQLCCSYNSLFPVMYGLLLFLLAERKDKRN
amount of [3H]octanoyl pro-ghrelin formed, in vitro assay with Sf9 membranes, against S3A mutant pro-ghrelin as substrate [2]: more than 5-fold higher than when the S3A mutant pro-ghrelin was used as the substrate
